B1: peptide of SEQ ID NO: 155 (peptide)
peptide: Ac-LEGREKVRAK(Ac)I[Aib][Aib]EG[Nle]STWS[Aib]AAK(Ac)K([PEG2′-PEG2′-PEG2′-γGlu-γGlu-γGlu-Stearoyl])-NH2
B2: peptide of SEQ ID NO: 147 (peptide)
peptide: Ac-LEGREKVRAK(Ac)I[Aib][Aib]EG[Nle]STFS[Aib]RKK(Ac)K([PEG2′-PEG2′-PEG2′-PEG2′-γGlu-γGlu-γGlu-γGlu-Palmitoyl])-NH2
B3: peptide of SEQ ID NO: 156 (peptide)
peptide: Ac-LEGREKVRAK(Ac)I[Aib][Aib]EG[Nle]STWS[Aib]AAK(Ac)K([PEG2DGA-PEG2DGA-γGlu-γGlu-γGlu-Stearoyl])-NH2
B4: peptide of SEQ ID NO: 159 (peptide)
peptide: Ac-LEGREKVRAK(Ac)I[Aib][Aib]EG[Nle]STFS[αMeK]RKK(Ac)[PEG2″][PEG2″][PEG2″][PEG2″][γGlu][γGlu]K([γGlu-γGlu-Palmitoyl])-NH2
B5: peptide of SEQ ID NO: 149 (peptide)
peptide: Ac-LEGREKVRAK(Ac)I[Aib][Aib]EG[Nle]STFS[αMeK]RAK(Ac)[PEG2″][PEG2″][PEG2″][PEG2″][γGlu][γGlu][γGlu]K([γGlu-Palmitoyl])-NH2
B6: peptide of SEQ ID NO: 152 (peptide)
peptide: Ac-LEGREKVRAK(Ac)I[Aib][Aib]EG[Nle]ST[αMeF]S[αMeK]RAK(Ac)[PEG2″][PEG2″][PEG2″][PEG2″][γGlu][γGlu][γGlu]K([γGlu-Palmitoyl])-NH2
B7: peptide of SEQ ID NO: 16 (peptide)
peptide: Ac-LEGREKVRAK(Ac)I[Aib][Aib]EG[Nle]STWS[αMeK]RKK(Ac)[PEG2″][PEG2″][PEG2″]K([γGlu-γGlu-γGlu-γGlu-Stearoyl])-NH2
B8: peptide of SEQ ID NO: 148 (peptide)
peptide: Ac-LEGREKVRAK(Ac)I[Aib][Aib]EG[Nle]STWS[Aib][Arg(Me2s)]KK(Ac)K-NH2
modifications: not fully specified (residue 25); printed as Ac-L-E-G-R-E-K-V-R-A-K(Ac)-I-Aib-Aib-E-G-Nle-S-T-W-S-Aib-Rds-K-K(Ac)-K(PEG2-PEG2-PEG2-gE-gE-gE-Stea)-NH2
B9: peptide of SEQ ID NO: 158 (peptide)
peptide: Ac-LEGREKVRAK(Ac)I[Aib][Aib]EG[Nle]ST[Trp(5-OH)]S[Aib]RKK(Ac)K([PEG2′-PEG2′-PEG2′-γGlu-γGlu-γGlu-Stearoyl])-NH2
B10: peptide of SEQ ID NO: 146 (peptide)
peptide: Ac-LEGREKVRAK(Ac)I[Aib][Aib]EG[Nle]STFS[αMeK]RKK(Ac)[TTDS(3)][TTDS(3)][γGlu][γGlu][γGlu]K([γGlu-Palmitoyl])-NH2
SMILES: CCCCCCCCCCCCCCCC(=O)N[C@@H](CCC(=O)NCCCC[C@H](NC(=O)CC[C@H](NC(=O)CC[C@H](NC(=O)CC[C@H](NC(=O)CCC(=O)NCCCOCCOCCOCCCNC(=O)CCC(=O)NCCCOCCOCCOCCCNC(=O)[C@H](CCCCNC(C)=O)NC(=O)[C@H](CCCCN)NC(=O)[C@H](CCCNC(=N)N)NC(=O)[C@](C)(CCCCN)NC(=O)[C@H](CO)NC(=O)[C@H](Cc1ccccc1)NC(=O)[C@@H](NC(=O)[C@H](CO)NC(=O)[C@H](CCCC)NC(=O)CNC(=O)[C@H](CCC(=O)O)NC(=O)C(C)(C)NC(=O)C(C)(C)NC(=O)[C@@H](NC(=O)[C@H](CCCCNC(C)=O)NC(=O)[C@H](C)NC(=O)[C@H](CCCNC(=N)N)NC(=O)[C@@H](NC(=O)[C@H](CCCCN)NC(=O)[C@H](CCC(=O)O)NC(=O)[C@H](CCCNC(=N)N)NC(=O)CNC(=O)[C@H](CCC(=O)O)NC(=O)[C@H](CC(C)C)NC(C)=O)C(C)C)[C@@H](C)CC)[C@@H](C)O)C(=O)O)C(=O)O)C(=O)O)C(N)=O)C(=O)O
B11: peptide of SEQ ID NO: 150 (peptide)
peptide: Ac-LEGREKVRAK(Ac)I[Aib][Aib]EG[Nle]STFS[αMeK]RAK(Ac)[PEG2″][PEG2″][PEG2″][PEG2″]K([γGlu-γGlu-γGlu-γGlu-Palmitoyl])-NH2
B12: peptide of SEQ ID NO: 151 (peptide)
peptide: Ac-LEGREKVRAK(Ac)I[Aib][Aib]EG[Nle]STFS[αMeK][Arg(Me)]AK(Ac)[PEG2″][PEG2″][PEG2″][PEG2″][γGlu][γGlu][γGlu]K([γGlu-Palmitoyl])-NH2
B13: peptide of SEQ ID NO: 153 (peptide)
peptide: Ac-LEGREKVRAK(Ac)I[Aib][Aib]EG[Nle]STFS[Aib]RKK(Ac)K([PEG2′-PEG2′-PEG2′-PEG2′-γGlu-γGlu-γGlu-Palmitoyl])-NH2
B14: peptide of SEQ ID NO: 160 (peptide)
peptide: Ac-LEGREKVRAK(Ac)I[Aib][Aib]EG[Nle]STFSXRAK(Ac)[PEG2′][PEG2′][PEG2′][PEG2′][γGlu][γGlu]K([γGlu-γGlu-Palmitoyl])-NH2
modifications: not fully specified (some residues); printed as Ac-L-E-G-R-E-K-V-R-A-K(Ac)-I-Aib-Aib-E-G-Nle-S-T-F-S-Mly-R-A-K(Ac)-PEG2-PEG2-PEG2-PEG2-gE-gE-K(gE-gE-Palm)-NH2
B15: peptide of SEQ ID NO: 2 (peptide)
peptide: Ac-LEGREKVRAQI[Aib][Aib]EG[Nle]STWS[Aib]RKK([γGlu-Palmitoyl])-NH2
SMILES: CCCCCCCCCCCCCCCC(=O)N[C@@H](CCC(=O)NCCCC[C@H](NC(=O)[C@H](CCCCN)NC(=O)[C@H](CCCNC(=N)N)NC(=O)C(C)(C)NC(=O)[C@H](CO)NC(=O)[C@H](Cc1c[nH]c2ccccc12)NC(=O)[C@@H](NC(=O)[C@H](CO)NC(=O)[C@H](CCCC)NC(=O)CNC(=O)[C@H](CCC(=O)O)NC(=O)C(C)(C)NC(=O)C(C)(C)NC(=O)[C@@H](NC(=O)[C@H](CCC(N)=O)NC(=O)[C@H](C)NC(=O)[C@H](CCCNC(=N)N)NC(=O)[C@@H](NC(=O)[C@H](CCCCN)NC(=O)[C@H](CCC(=O)O)NC(=O)[C@H](CCCNC(=N)N)NC(=O)CNC(=O)[C@H](CCC(=O)O)NC(=O)[C@H](CC(C)C)NC(C)=O)C(C)C)[C@@H](C)CC)[C@@H](C)O)C(N)=O)C(=O)O
B16: peptide of SEQ ID NO: 157 (peptide)
peptide: Ac-LEGREKVRAK(Ac)I[Aib][Aib]EG[Nle]STFS[αMeK]RAK(Ac)[TTDS(3)][TTDS(3)][γGlu][γGlu][γGlu]K([γGlu-Palmitoyl])-NH2
SMILES: CCCCCCCCCCCCCCCC(=O)N[C@@H](CCC(=O)NCCCC[C@H](NC(=O)CC[C@H](NC(=O)CC[C@H](NC(=O)CC[C@H](NC(=O)CCC(=O)NCCCOCCOCCOCCCNC(=O)CCC(=O)NCCCOCCOCCOCCCNC(=O)[C@H](CCCCNC(C)=O)NC(=O)[C@H](C)NC(=O)[C@H](CCCNC(=N)N)NC(=O)[C@](C)(CCCCN)NC(=O)[C@H](CO)NC(=O)[C@H](Cc1ccccc1)NC(=O)[C@@H](NC(=O)[C@H](CO)NC(=O)[C@H](CCCC)NC(=O)CNC(=O)[C@H](CCC(=O)O)NC(=O)C(C)(C)NC(=O)C(C)(C)NC(=O)[C@@H](NC(=O)[C@H](CCCCNC(C)=O)NC(=O)[C@H](C)NC(=O)[C@H](CCCNC(=N)N)NC(=O)[C@@H](NC(=O)[C@H](CCCCN)NC(=O)[C@H](CCC(=O)O)NC(=O)[C@H](CCCNC(=N)N)NC(=O)CNC(=O)[C@H](CCC(=O)O)NC(=O)[C@H](CC(C)C)NC(C)=O)C(C)C)[C@@H](C)CC)[C@@H](C)O)C(=O)O)C(=O)O)C(=O)O)C(N)=O)C(=O)O
B17: peptide of SEQ ID NO: 154 (peptide)
peptide: Ac-LEGREKVRAK(Ac)I[Aib][Aib]EG[Nle]STFS[αMeK]RAK(Ac)K([PEG2′-PEG2′-PEG2′-PEG2′-γGlu-γGlu-γGlu-γGlu-Palmitoyl])-NH2

*1 amine or outer side, *2 acyl side, *3 side chain or, on linkers, in order; H or OH if unused. Primed or numbered codes have the meaning given here. Side-chain parts run from the residue outwards. [ ]: non-standard residue; d: D form. The star is where a group is joined. PEG2DGA = 2-[2-[3-[2-[2-(3-aminopropoxy)ethoxy]ethoxy]propylamino-2-oxo-ethoxy]acetyl; TTDS(3) = O=C(CCC(=O)[*:2])NCCCOCCOCCOCCCN[*:1]; Trp(5-OH) = N[C@@H](Cc1c[nH]c2ccc(O)cc12)C(=O)O; Arg(Me2s) = CN=C(NC)NCCC[C@H](N)C(=O)O; γGlu = O=C(O)[C@H](CCC(=O)[*:2])N[*:1]; Arg(Me) = CNC(=N)NCCC[C@H](N)C(=O)O; Stearoyl = CCCCCCCCCCCCCCCCCC(=O)*; Palmitoyl = CCCCCCCCCCCCCCCC(=O)*; αMeF = C[C@](N)(Cc1ccccc1)C(=O)O; αMeK = C[C@](N)(CCCCN)C(=O)O; Nle = CCCC[C@H](N)C(=O)O; PEG2′ = PEG2 spacer unit; PEG2″ = not defined here; Aib = CC(C)(N)C(=O)O

The target of this test is T1, RXFP1 receptor (UniProt Q9HBX9 1-757, limits assumed).
T1 sequence (looked up): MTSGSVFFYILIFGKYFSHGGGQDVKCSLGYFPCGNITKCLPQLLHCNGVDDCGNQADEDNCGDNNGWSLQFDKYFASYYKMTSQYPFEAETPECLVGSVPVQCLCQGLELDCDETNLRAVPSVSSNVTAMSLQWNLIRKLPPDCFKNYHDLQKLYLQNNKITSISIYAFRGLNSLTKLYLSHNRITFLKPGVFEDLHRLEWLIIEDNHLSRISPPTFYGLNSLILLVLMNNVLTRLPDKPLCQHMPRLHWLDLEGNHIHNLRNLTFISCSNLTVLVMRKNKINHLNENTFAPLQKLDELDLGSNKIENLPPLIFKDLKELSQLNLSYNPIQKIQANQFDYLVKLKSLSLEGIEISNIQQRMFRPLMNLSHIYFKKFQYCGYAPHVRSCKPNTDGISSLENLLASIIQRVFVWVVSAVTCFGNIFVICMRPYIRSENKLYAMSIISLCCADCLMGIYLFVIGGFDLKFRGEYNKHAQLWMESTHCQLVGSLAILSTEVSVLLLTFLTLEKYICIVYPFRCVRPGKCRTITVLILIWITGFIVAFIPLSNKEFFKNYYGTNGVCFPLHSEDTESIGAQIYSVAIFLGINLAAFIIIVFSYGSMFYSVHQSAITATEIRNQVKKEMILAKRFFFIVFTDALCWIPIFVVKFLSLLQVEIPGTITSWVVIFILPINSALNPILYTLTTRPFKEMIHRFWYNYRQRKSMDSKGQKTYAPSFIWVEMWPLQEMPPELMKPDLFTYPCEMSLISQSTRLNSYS
As to the kind of experiment: cell-based or functional assay.
For B1, the “EC50 (nM), OVCAR 5 cells (cAMP)” value amounted to 1.17 nM and the “EMax, OVCAR 5 cells (cAMP)” value came to 95%.
On to B2, for which the “EC50 (nM), OVCAR 5 cells (cAMP)” value is 2.14 nM and the “EMax, OVCAR 5 cells (cAMP)” value was 86%.
In the case of B3, the “EC50 (nM), OVCAR 5 cells (cAMP)” value came to 0.06 nM and the “EMax, OVCAR 5 cells (cAMP)” value was determined as 90%.
With B4, the “EC50 (nM), OVCAR 5 cells (cAMP)” value came to 0.02 nM and the “EMax, OVCAR 5 cells (cAMP)” value came to 88%.
For the molecule B5, the “EC50 (nM), OVCAR 5 cells (cAMP)” value is 0.11 nM and the “EMax, OVCAR 5 cells (cAMP)” value stood at 87%.
Regarding B6, the “EC50 (nM), OVCAR 5 cells (cAMP)” value came to 0.04 nM and the “EMax, OVCAR 5 cells (cAMP)” value was found to be 91%.
Taken in the same sequence, the figures for B7 were 0.02 nM and 87%.
In the same order, the values of B8 are 0.11 nM and 94%.
For B9, the “EC50 (nM), OVCAR 5 cells (cAMP)” value is 0.14 nM and the “EMax, OVCAR 5 cells (cAMP)” value came out at 90%.
B10: the “EC50 (nM), OVCAR 5 cells (cAMP)” value is 0.02 nM and the “EMax, OVCAR 5 cells (cAMP)” value was 89%.
B11: the “EC50 (nM), OVCAR 5 cells (cAMP)” value is 0.07 nM and the “EMax, OVCAR 5 cells (cAMP)” value was 92%.
Consider B12, for which the “EC50 (nM), OVCAR 5 cells (cAMP)” value was 0.14 nM and the “EMax, OVCAR 5 cells (cAMP)” value was found to be 90%.
Turning to B13, the “EC50 (nM), OVCAR 5 cells (cAMP)” value worked out at 0.26 nM and the “EMax, OVCAR 5 cells (cAMP)” value was found to be 89%.
Consider B14, for which the “EC50 (nM), OVCAR 5 cells (cAMP)” value came to 0.28 nM and the “EMax, OVCAR 5 cells (cAMP)” value is 86%.
As to B15, the “EC50 (nM), OVCAR 5 cells (cAMP)” value turned out to be 24 nM and the “EMax, OVCAR 5 cells (cAMP)” value is 100%.
Take B16: the “EC50 (nM), OVCAR 5 cells (cAMP)” value came out at 0.02 nM and the “EMax, OVCAR 5 cells (cAMP)” value is 89%.
Taken in the same sequence, the figures for B17 were 0.4 nM and 92%.

The record behind these values is patent US20190233493A1 (Sanofi, published 2019).
